In patent publication US8647613B2, “Drug carrier” (JCR Pharmaceuticals Co., Ltd., priority 2005, dated 2014):

B1: Catalase (from bovie liver): model protein, 232 kDa (protein, UniProt P00432 2-527, looked up)
Catalase: ADNRDPASDQMKHWKEQRAAQKPDVLTTGGGNPVGDKLNSLTVGPRGPLLVQDVVFTDEMAHFDRERIPERVVHAKGAGAFGYFEVTHDITRYSKAKVFEHIGKRTPIAVRFSTVAGESGSADTVRDPRGFAVKFYTEDGNWDLVGNNTPIFFIRDALLFPSFIHSQKRNPQTHLKDPDMVWDFWSLRPESLHQVSFLFSDRGIPDGHRHMNGYGSHTFKLVNANGEAVYCKFHYKTDQGIKNLSVEDAARLAHEDPDYGLRDLFNAIATGNYPSWTLYIQVMTFSEAEIFPFNPFDLTKVWPHGDYPLIPVGKLVLNRNPVNYFAEVEQLAFDPSNMPPGIEPSPDKMLQGRLFAYPDTHRHRLGPNYLQIPVNCPYRARVANYQRDGPMCMMDNQGGAPNYYPNSFSAPEHQPSALEHRTHFSGDVQRFNSANDDNVTQVRTFYLKVLNEEQRKRLCENIAGHLKDAQLFIQKKAVKNFSDVHPEYGSRIQALLDKYNEEKPKNAVHTYVQHGSHLSAREKANL

Tests used:
[1] = Hydrolysis of compound 28 in the liposome at low pH (thin layer chromatography); type: physicochemical; details: PBS pH 4.5, 37° C., 24 hours, liposome 3/4/3/0.03
Description: The prepared liposome (DOPC/chol/(28)/PEG-DPE=3/4/3/0.03, molar ratio) was dispersed in PBS of pH 4.5 at 37° C., and the dispersion was lyophilized 24 hours later. The dried mixed lipid powder was dissolved in chloroform and detected by thin layer chromatography (silica gel plate, chloroform/methanol (8/1) (volume/volume) detection: iodine).

[2] = cited from earlier work; for Isoelectric point: Table 2; for Isoelectric point (-): Table 5

Molecule	hydrolysis in the liposome at low pH [1]	Isoelectric point [2]	Isoelectric point (-) [2]
CCCCCCCCCCCCCCCCOC(=O)CCC(NC(=O)C(N)CCC(=O)O)C(=O)OCCCCCCCCCCCCCCCC (centres unmarked) [compound 28]	hydrolyzed	–	–
Ferritin	–	4.0-5.0	4.0-5.0
Thyrogrobulin: model protein, 670 kDa	–	4.5	4.5
α-Lactalbumin: model protein, molecular weight 14 kDa	–	4.1-4.8	4.1-4.8
B1	–	–	5.5
